The target of experiment [1] is T1, human Folate Receptor alpha (FRα) (human, UniProt P15328 25-234).
T1 construct: whole, on cells; also called hFRα; hFRa
Nature of the experiment: flow cytometry, BiTE supernatant on IE9-mp1-hFRa cells, anti-His tag detection. An excerpt: (§1) The DNA sequence corresponding to the G(EAAAK)3 (SEQ ID NO:9) linker ([…] (SEQ ID NO:8), followed by Mov19 scFv, 6× His Tag, Furin cleavage peptide, SGSG linker+P2A translational skipping sequence, and monomeric enhanced GFP (eGFP) reporter (to monitor transduction efficiency) was PCR amplified from an existing plasmid to generate overlapping DNA fragments amenable to assembly using NEBuilder (FIG. 7A). FR—B and FR-Bh sequences along with GFP reporter genes were inserted into the previously described retroviral vector¹ using NotI and PacI restriction sites, with DNA fragments assembled using NEBuilder HIFI DNA assembly (New England Biolabs). Plasmid sequences were confirmed by Sanger Sequencing, and retroviruses used to transduce human or mouse cells produced in PG13 or PLAT-E retroviral packaging cells lines, respectively. For murine studies, control T cells were either transduced with a retrovirus expressing a codon-optimized Luciferase (Luc2)-P2A-GFP gene and produced in PLAT-E cells or were Mock transduced. […] In all cases, cell culture supernatant from high-titer retrovirus producing clones was collected and used for viral transduction. For initial testing of BiTEs for antigen-specific binding, 293T cells were retrovirally transduced, followed by collection of 293T cell culture supernatants. […]

Experiment [2] deals with T2, human CD3ε (human, UniProt P07766 23-207).
T2 construct: whole, on cells; The assay stained human T cells; also called hCD3e; CD3e
T2 sequence (P07766 23-207): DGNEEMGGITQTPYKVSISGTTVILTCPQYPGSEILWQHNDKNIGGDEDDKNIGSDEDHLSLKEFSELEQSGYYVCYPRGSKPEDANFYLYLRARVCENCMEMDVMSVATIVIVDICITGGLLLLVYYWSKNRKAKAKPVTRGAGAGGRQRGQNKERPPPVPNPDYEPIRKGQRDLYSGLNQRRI
Put plainly: flow cytometry on human T cells, anti-His tag detection.
Excerpt: as §1
In general terms: A flow cytometer gives signals particle by particle.

The target in experiment [3] is T3, mouse CD3ε (mouse, UniProt P22646 22-189).
T3 construct: whole, on cells; The assay stained mouse T cells; also called mCD3e
T3 sequence (P22646 22-189): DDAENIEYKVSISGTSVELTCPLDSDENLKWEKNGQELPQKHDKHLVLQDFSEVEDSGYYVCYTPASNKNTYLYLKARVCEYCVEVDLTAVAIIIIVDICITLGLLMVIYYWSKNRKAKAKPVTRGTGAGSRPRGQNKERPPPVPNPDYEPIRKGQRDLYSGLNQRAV
Put plainly: flow cytometry, BiTE supernatant on mouse T cells, anti-His tag detection.
Excerpt: as §1

Experiment [4] has as its target T1, human Folate Receptor alpha (FRα). Put plainly: flow cytometry, BiTE supernatant on FRα+ cancer cells, anti-His tag detection.
Excerpt: as §1

The target in experiment [5] is T3, mouse CD3ε. Nature of the experiment: flow cytometry on mouse CD8+ T cells, anti-His tag detection; staining control.
Excerpt: as §1

Experiment [6] addresses T2, human CD3ε. Put plainly: flow cytometry, BiTE supernatant on human T cells, anti-His tag detection.
Excerpt: as §1

The results in this text go back to patent publication US20240408202A1 (HEALTH RESEARCH, published 2024).

T1 sequence (P15328 25-234): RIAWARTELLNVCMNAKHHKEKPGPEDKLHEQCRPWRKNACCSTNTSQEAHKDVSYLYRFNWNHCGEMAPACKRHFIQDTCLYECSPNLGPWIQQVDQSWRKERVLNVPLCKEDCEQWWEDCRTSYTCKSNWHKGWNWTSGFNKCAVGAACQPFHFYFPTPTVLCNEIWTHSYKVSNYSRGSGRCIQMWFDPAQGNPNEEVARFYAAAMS

B1: FR-B, mouse FRα targeted BiTE (mCD3e scFv 145-2C11 x hFRα scFv MOv19), chimeric BiTE (bispecific antibody)
chain: GEVQLVESGGGLVQPGKSLKLSCEASGFTFSGYGMHWVRQAPGRGLESVAYITSSSINIKYADAVKGRFTVSRDNAKNLLFLQMNILKSEDTAMYYCARFDWDKNYWGQGTMVTVSSGGGGSGGGGSGGGGSDIQMTQSPSSLPASLGDRVTINCQASQDISNYLNWYQQKPGKAPKLLIYYTNKLADGVPSRFSGSGSGRDSSFTISSLESEDIGSYYCQQYYNYPWTFGPGTKLEIKGEAAAKEAAAKEAAAKDIELTQSPASLAVSLGQRAIISCKASQSVSFAGTSLMHWYHQKPGQQPKLLIYRASNLEAGVPTRFSGSGSKTDFTLNIHPVEEEDAATYYCQQSREYPYTFGGGTKLEIKGSTSGSGKSSEGKGQVQLQQSGAELVKPGASVKISCKASGYSFTGYFMNWVKQSHGKSLEWIGRIHPYDGDTFYNQNFKDKATLTVDKSSNTAHMELLSLTSEDFAVYYCTRYDGSRAMDYWGQGTTVTVSSGSGHHHHHH
notes: also called CONT-ENG; Cont-ENG
Turning to B1, the figures for the binding result (in experiment [1]; in the experiment with human CD3ε [2]; in the experiment with mouse CD3ε [3]) were “binds”, “no binding” and “binds”, respectively.

B2: FR-Bh, human FRα targeted BiTE (hCD3e scFv UCHT1 x hFRα scFv MOv19) (bispecific antibody)
chain: GMDIQMTQTTSSLSASLGDRVTISCRASQDIRNYLNWYQQKPDGTVKLLIYYTSRLHSGVPSKFSGSGSGTDYSLTISNLEQEDIATYFCQQGNTLPWTFAGGTKLEIKGGGGSGGGGSGGGGSGGGGSEVQLQQSGPELVKPGASMKISCKASGYSFTGYTMNWVKQSHGKNLEWMGLINPYKGVSTYNQKFKDKATLTVDKSSSTAYMELLSLTSEDSAVYYCARSGYYGDSDWYFDVWGQGTTLTVFSGEAAAKEAAAKEAAAKDIELTQSPASLAVSLGQRAIISCKASQSVSFAGTSLMHWYHQKPGQQPKLLIYRASNLEAGVPTRFSGSGSKTDFTLNIHPVEEEDAATYYCQQSREYPYTFGGGTKLEIKGSTSGSGKSSEGKGQVQLQQSGAELVKPGASVKISCKASGYSFTGYFMNWVKQSHGKSLEWIGRIHPYDGDTFYNQNFKDKATLTVDKSSNTAHMELLSLTSEDFAVYYCTRYDGSRAMDYWGQGTTVTVSSGSGHHHHHH
notes: also called FRα-specific BiTE
As to B2, the binding result in experiment [4] was “binds”; with mouse CD3ε [5], “no binding”; with human CD3ε [6], “binds”.
